Measured values as given in patent US20100169988A1 (published 2010).

Assays:
APP-TAP-AICD [1] = biological target: T1, APP-TAP-AICD (human, UniProt P05067 18-695); assay: streptavidin purification of APP-TAP-AICD from brain homogenate; LTQ-FT semiquantitative method, transgenic mouse 75 vs control mouse 72
APP-TAP-AICD [2] = biological target: T1, APP-TAP-AICD; assay: streptavidin purification of APP-TAP-AICD from brain homogenate; iTRAQ 116/114, transgenic mouse 75 vs control mouse 72; MALDI-TOF/TOF;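 further: relative protein abundance in the transgenic versus control pull-down, limited to proteins with high quality scores and above-average enrichment, without full normalization across the whole measurement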

B1: Excitatory amino acid transporter 1 (Sodium-dependent glutamate/aspartate transporter) (GLAST) (other, mouse, UniProt P56564 1-543, looked up)
chain: MTKSNGEEPRMGGRMERLQQGVRKRTLLAKKKVQSLTKEDVKSYLFRNAFVLLTVTAVIVGTILGFALRPYKMSYREVKYFSFPGELLMRMLQMLVLPLIISSLVTGMAALDSKASGKMGMRAVVYYMTTTIIAVVIGIIIVIIIHPGKGTKENMYREGKIVQVTAADAFLDLIRNMFPPNLVEACFKQFKTSYEKRSFKVPIQSNETLLGAVINNVSEAMETLTRIREEMVPVPGSVNGVNALGLVVFSMCFGFVIGNMKEQGQALREFFDSLNEAIMRLVAVIMWYAPLGILFLIAGKIVEMEDMGVIGGQLAMYTVTVIVGLLIHAVIVLPLLYFLVTRKNPWVFIGGLLQALITALGTSSSSATLPITFKCLEENNGVDKRITRFVLPVGATINMDGTALYEALAAIFIAQVNNFDLNFGQIITISITATAASIGAAGIPQAGLVTMVIVLTSVGLPTDDITLIIAVDWFLDRLRTTTNVLGDSLGAGIVEHLSRHELKNRDVEMGNSVIEENEMKKPYQLIAQDNEPEKPVADSETKM
notes: also called EAA1_MOUSE
APP-TAP-AICD [1]
  probability that this protein is enriched: 1

B2: ATP synthase alpha chain; mitochondrial precursor (enzyme, mouse, UniProt Q03265 44-553, looked up)
chain: QKTGTAEMSSILEERILGADTSVDLEETGRVLSIGDGIARVHGLRNVQAEEMVEFSSGLKGMSLNLEPDNVGVVVFGNDKLIKEGDVVKRTGAIVDVPVGEELLGRVVDALGNAIDGKGPIGSKTRRRVGLKAPGIIPRISVREPMQTGIKAVDSLVPIGRGQRELIIGDRQTGKTSIAIDTIINQKRFNDGTDEKKKLYCIYVAIGQKRSTVAQLVKRLTDADAMKYTIVVSATASDAAPLQYLAPYSGCSMGEYFRDNGKHALIIYDDLSKQAVAYRQMSLLLRRPPGREAYPGDVFYLHSRLLERAAKMNDSFGGGSLTALPVIETQAGDVSAYIPTNVISITDGQIFLETELFYKGIRPAINVGLSVSRVGSAAQTRAMKQVAGTMKLELAQYREVAAFAQFGSDLDAATQQLLSRGVRLTELLKQGQYSPMAIEEQVAVIYAGVRGYLDKLEPSKITKFENAFLSHVISQHQSLLGNIRSDGKISEQSDAKLKEIVTNFLAGFEP
APP-TAP-AICD [2]
  iTRAQ ratio: 3.39

B3: Fructose-bisphosphate aldolase C (Brain-type aldolase) (Aldolase 3) (enzyme, mouse, UniProt P05063 2-363, looked up)
chain: PHSYPALSAEQKKELSDIALRIVTPGKGILAADESVGSMAKRLSQIGVENTEENRRLYRQVLFSADDRVKKCIGGVIFFHETLYQKDDNGVPFVRTIQDKGILVGIKVDKGVVPLAGTDGETTTQGLDGLLERCAQYKKDGADFAKWRCVLKISDRTPSALAILENANVLARYASICQQNGIVPIVEPEILPDGDHDLKRCQYVTEKVLAAVYKALSDHHVYLEGTLLKPNMVTPGHACPIKYSPEEIAMATVTALRRTVPPAVPGVTFLSGGQSEEEASLNLNAINRCPLPRPWALTFSYGRALQASALNAWRGQRDNAGAATEEFIKRAEMNGLAAQGRYEGSGDGGAAAQSLYIANHAY
APP-TAP-AICD [2]
  iTRAQ ratio: 3.77

B4: Peroxiredoxin-5, mitochondrial precursor (Prx-V) (enzyme, mouse, UniProt P99029 49-210, looked up)
chain: MAPIKVGDAIPSVEVFEGEPGKKVNLAELFKGKKGVLFGVPGAFTPGCSKTHLPGFVEQAGALKAKGAQVVACLSVNDVFVIEEWGRAHQAEGKVRLLADPTGAFGKATDLLLDDSLVSLFGNRRLKRFSMVIDNGIVKALNVEPDGTGLTCSLAPNILSQL
notes: also called PRDX5_MOUSE
APP-TAP-AICD [1]
  probability that this protein is enriched: 1

B5: Tubulin beta-4 chain (other, mouse, UniProt Q9D6F9 1-444, looked up)
chain: MREIVHLQAGQCGNQIGAKFWEVISDEHGIDPTGTYHGDSDLQLERINVYYNEATGGNYVPRAVLVDLEPGTMDSVRSGPFGQIFRPDNFVFGQSGAGNNWAKGHYTEGAELVDAVLDVVRKEAESCDCLQGFQLTHSLGGGTGSGMGTLLISKIREEFPDRIMNTFSVVPSPKVSDTVVEPYNATLSVHQLVENTDETYCIDNEALYDICFRTLKLTTPTYGDLNHLVSATMSGVTTCLRFPGQLNADLRKLAVNMVPFPRLHFFMPGFAPLTSRGSQQYRALTVPELTQQMFDAKNMMAACDPRHGRYLTVAAVFRGRMSMKEVDEQMLSVQSKNSSYFVEWIPNNVKTAVCDIPPRGLKMAATFIGNSTAIQELFKRISEQFTAMFRRKAFLHWYTGEGMDEMEFTEAESNMNDLVSEYQQYQDATAEEGEFEEEAEEEVA
notes: also called TBB4_MOUSE
APP-TAP-AICD [2]
  iTRAQ ratio: 3.22

B6: 14-3-3 protein eta (other, mouse, UniProt P68510 2-246, looked up)
chain: GDREQLLQRARLAEQAERYDDMASAMKAVTELNEPLSNEDRNLLSVAYKNVVGARRSSWRVISSIEQKTMADGNEKKLEKVKAYREKIEKELETVCNDVLALLDKFLIKNCNDFQYESKVFYLKMKGDYYRYLAEVASGEKKNSVVEASEAAYKEAFEISKEHMQPTHPIRLGLALNFSVFYYEIQNAPEQACLLAKQAFDDAIAELDTLNEDSYKDSTLIMQLLRDNLTLWTSDQQDEEAGEGN
notes: also called 14-3-3 η
APP-TAP-AICD [1]
  probability that this protein is enriched: 1

B7: Aspartate aminotransferase; mitochondrial precursor (Transaminase A) (enzyme, mouse, UniProt P05202 30-430, looked up)
chain: SSWWTHVEMGPPDPILGVTEAFKRDTNSKKMNLGVGAYRDDNGKPYVLPSVRKAEAQIAAKNLDKEYLPIGGLAEFCKASAELALGENNEVLKSGRFVTVQTISGTGALRVGASFLQRFFKFSRDVFLPKPSWGNHTPIFRDAGMQLQGYRYYDPKTCGFDFSGALEDISKIPEQSVLLLHACAHNPTGVDPRPEQWKEIASVVKKKNLFAFFDMAYQGFASGDGDKDAWAVRHFIEQGINVCLCQSYAKNMGLYGERVGAFTVVCKDAEEAKRVESQLKILIRPLYSNPPLNGARIAATILTSPDLRKQWLQEVKGMADRIISMRTQLVSNLKKEGSSHNWQHITDQIGMFCFTGLKPEQVERLTKEFSVYMTKDGRISVAGVTSGNVGYLAHAIHQVTK
APP-TAP-AICD [2]
  iTRAQ ratio: 3.51

B8: Vacuolar ATP synthase catalytic subunit A; ubiquitous isoform (enzyme)
chain: MDFSKLPKIRDEDKESTFGYVHGVSGPVVTACDMAGAAMYELVRVGHSELVGEIIRLEGDMATIQVYEETSGVSVGDPVLRTGKPLSVELGPGIMGAIFDGIQRPLSDISSQTQSIYIPRGVNVSALSRDIKWEFIPSKNLRVGSHITGGDIYGIVNENSLIKHKIMLPPRNRGSVTYIAPPGNYDASDVVLELEFEGVKEKFSMVQVWPVRQVRPVTEKLPANHPLLTGQRVLDALFPCVQGGTTAIPGAFGCGKTVISQSLSKYSNSDVIIYVGCGERGNEMSEVLRDFPELTMEVDGKVESIMKRTALVANTSNMPVAAREASIYTGITLSEYFRDMGYHVSMMADSTSRWAEALREISGRLAEMPADSGYPAYLGARLASFYERAGRVKCLGNPEREGSVSIVGAVSPPGGDFSDPVTSATLGIVQVFWGLDKKLAQRKHFPSVNWLISYSKYMRALDEYYDKHFTEFVPLRTKAKEILQEEEDLAEIVQLVGKASLAETDKITLEVAKLIKDDFLQQNGYTPYDRFCPFYKTVGMLSNMISFYDMARRAVETTAQSDNKITWSIIREHMGEILYKLSSMKFKDPVKDGEAKIKADYAQLLEDMQNAFRSLED
notes: also called VATA1_MOUSE
APP-TAP-AICD [2]
  iTRAQ ratio: 3.81

B9: Superoxide dismutase [Cu-Zn] (enzyme)
chain: not shown
APP-TAP-AICD [1]
  probability that this protein is enriched: 1

B10: 14-3-3 protein theta (14-3-3 protein tau) (other, mouse, UniProt P68254 1-245, looked up)
chain: MEKTELIQKAKLAEQAERYDDMATCMKAVTEQGAELSNEERNLLSVAYKNVVGGRRSAWRVISSIEQKTDTSDKKLQLIKDYREKVESELRSICTTVLELLDKYLIANATNPESKVFYLKMKGDYFRYLAEVACGDDRKQTIENSQGAYQEAFDISKKEMQPTHPIRLGLALNFSVFYYEILNNPELACTLAKTAFDEAIAELDTLNEDSYKDSTLIMQLLRDNLTLWTSDSAGEECDAAEGAEN
notes: also called 14-3-3 θ
APP-TAP-AICD [1]
  probability that this protein is enriched: 1

B11: MKIAA0820 protein (Fragment) (other, mouse, UniProt Q8BZ98 1-863, looked up)
chain: MGNREMEELIPLVNRLQDAFSALGQSCLLELPQIAVVGGQSAGKSSVLENFVGRDFLPRGSGIVTRRPLVLQLVTSKAEYAEFLHCKGKKFTDFDEVRHEIEAETDRVTGMNKGISSIPINLRVYSPHVLNLTLIDLPGITKVPVGDQPPDIEYQIRDMIMQFITRENCLILAVTPANTDLANSDALKLAKEVDPQGLRTIGVITKLDLMDEGTDARDVLENKLLPLRRGYVGVVNRSQKDIDGKKDIKAAMLAERKFFLSHPAYRHIADRMGTPHLQKVLNQQLTNHIRDTLPNFRNKLQGQLLSIEHEVEAFKNFKPEDPTRKTKALLQMVQQFAVDFEKRIEGSGDQVDTLELSGGAKINRIFHERFPFEIVKMEFNEKELRREISYAIKNIHGIRTGLFTPDMAFEAIVKKQIVKLKGPSLKSVDLVMQELINTVKKCTKRLANFPRLCEETERIVANHIREREGKTKDQVLLLIDIQVSYINTNHEDFIGFANAQQRSSQVHKKSTIGNQVIRKGWLTVSNIGIMKGGSKGYWFVLTAESLSWYKDDEEKEKKYMLPLDNLKVRDVEKGFMSSKHVFALFNTEQRNVYKDYRFLELACDSQEDVDSWKASLLRAGVYPDKSVGSNKTENDENGQAENFSMDPQLERQVETIRNLVDSYMSIINKCIRDLIPKTIMHLMINNVKDFINSELLAQLYSSEDQNTLMEESAEQAQRRDEMLRMYQALKEALAIIGDINTATVSTPAPPPVDDSWLQHSRRSPPPSPTTQRRLTISAPLPRPTSGRGPAPAIPSPGPHSGAPPVPFRPGPLPPFPNSSDSFGAPPQVPSRPTRAPPSVPSRRPPPSPTRPTIIRPLESSLLD
notes: also called Q80TR2_MOUSE
APP-TAP-AICD [1]
  probability that this protein is enriched: 1

B12: Glutamine synthetase (Glutamate-ammonia ligase) (enzyme, mouse, UniProt P15105 2-373, looked up)
chain: ATSASSHLNKGIKQMYMSLPQGEKVQAMYIWVDGTGEGLRCKTRTLDCEPKCVEELPEWNFDGSSTFQSEGSNSDMYLHPVAMFRDPFRKDPNKLVLCEVFKYNRKPAETNLRHICKRIMDMVSNQHPWFGMEQEYTLMGTDGHPFGWPSNGFPGPQGPYYCGVGADKAYGRDIVEAHYRACLYAGVKITGTNAEVMPAQWEFQIGPCEGIRMGDHLWIARFILHRVCEDFGVIATFDPKPIPGNWNGAGCHTNFSTKAMREENGLKCIEEAIDKLSKRHQYHIRAYDPKGGLDNARRLTGFHETSNINDFSAGVANRGASIRIPRTVGQEKKGYFEDRRPSANCDPYAVTEAIVRTCLLNETGDEPFQYKN
APP-TAP-AICD [2]
  iTRAQ ratio: 3.76

B13: Elongation factor 1-alpha 2 (EF-1-alpha-2) (Elongation factor 1 A-2) (eEF1A-2) (Statin S1) (other, mouse, UniProt P62631 2-463, looked up)
chain: GKEKTHINIVVIGHVDSGKSTTTGHLIYKCGGIDKRTIEKFEKEAAEMGKGSFKYAWVLDKLKAERERGITIDISLWKFETTKYYITIIDAPGHRDFIKNMITGTSQADCAVLIVAAGVGEFEAGISKNGQTREHALLAYTLGVKQLIVGVNKMDSTEPAYSEKRYDEIVKEVSAYIKKIGYNPATVPFVPISGWHGDNMLEPSPNMPWFKGWKVERKEGNASGVSLLEALDTILPPTRPTDKPLRLPLQDVYKIGGIGTVPVGRVETGILRPGMVVTFAPVNITTEVKSVEMHHEALSEALPGDNVGFNVKNVSVKDIRRGNVCGDSKADPPQEAAQFTSQVIILNHPGQISAGYSPVIDCHTAHIACKFAELKEKIDRRSGKKLEDNPKSLKSGDAAIVEMVPGKPMCVESFSQYPPLGRFAVRDMRQTVAVGVIKNVEKKSGGAGKVTKSAQKAQKAGK
notes: also called EF1A2_MOUSE
APP-TAP-AICD [1]
  probability that this protein is enriched: 1
